Experimental findings from US20240011005A1 (HUIDAGENE THERAPEUTICS, published 2024) are described below.

The test system of data set [1] is T1, RhCas12f1-S130R S130R (Ruminiclostridium herbifermentans).
T1 sequence: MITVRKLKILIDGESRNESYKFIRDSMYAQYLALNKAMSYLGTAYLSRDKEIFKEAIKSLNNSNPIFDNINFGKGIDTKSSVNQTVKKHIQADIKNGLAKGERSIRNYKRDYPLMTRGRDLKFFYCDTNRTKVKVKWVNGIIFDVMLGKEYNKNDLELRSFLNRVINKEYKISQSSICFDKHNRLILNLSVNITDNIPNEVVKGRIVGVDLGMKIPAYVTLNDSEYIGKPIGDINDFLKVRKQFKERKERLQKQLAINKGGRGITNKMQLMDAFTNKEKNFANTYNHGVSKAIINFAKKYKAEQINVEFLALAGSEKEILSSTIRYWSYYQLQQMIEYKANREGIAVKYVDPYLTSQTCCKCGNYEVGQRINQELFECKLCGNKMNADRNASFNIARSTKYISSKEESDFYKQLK
Put plainly: cell_activity. Particulars: PAM CCCA.

The subject of data set [2] is T2, RhCas12f1-A273R A273R (Ruminiclostridium herbifermentans).
T2 sequence: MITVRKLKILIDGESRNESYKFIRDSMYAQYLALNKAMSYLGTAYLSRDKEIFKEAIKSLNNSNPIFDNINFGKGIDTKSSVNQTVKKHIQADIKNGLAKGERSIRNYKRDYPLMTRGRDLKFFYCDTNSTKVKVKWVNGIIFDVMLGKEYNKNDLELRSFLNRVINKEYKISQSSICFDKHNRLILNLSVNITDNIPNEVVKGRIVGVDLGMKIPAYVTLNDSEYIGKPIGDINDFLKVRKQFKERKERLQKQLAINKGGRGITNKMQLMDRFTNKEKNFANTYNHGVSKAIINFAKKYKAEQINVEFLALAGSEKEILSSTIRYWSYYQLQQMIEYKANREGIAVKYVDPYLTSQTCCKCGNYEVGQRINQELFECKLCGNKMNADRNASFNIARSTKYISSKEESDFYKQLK
As to the kind of experiment: cell_activity. To be noted: PAM CCCA.

The subject of data set [3] is T3, RhCas12f1-L270R (enRhCas12f1) (Ruminiclostridium herbifermentans).
T3 sequence: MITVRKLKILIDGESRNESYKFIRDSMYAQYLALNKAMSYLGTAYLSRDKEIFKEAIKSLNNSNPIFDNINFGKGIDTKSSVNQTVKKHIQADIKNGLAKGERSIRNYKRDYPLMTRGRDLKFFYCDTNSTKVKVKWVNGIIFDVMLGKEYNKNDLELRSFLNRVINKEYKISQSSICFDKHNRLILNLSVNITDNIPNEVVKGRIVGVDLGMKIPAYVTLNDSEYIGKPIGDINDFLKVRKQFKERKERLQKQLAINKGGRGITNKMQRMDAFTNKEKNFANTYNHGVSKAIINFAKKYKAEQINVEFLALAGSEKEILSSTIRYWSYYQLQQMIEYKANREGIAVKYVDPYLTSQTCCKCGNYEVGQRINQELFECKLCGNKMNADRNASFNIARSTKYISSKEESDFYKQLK
As to the kind of experiment: cell_activity. To be noted: PAM CCCA.

For data set [4], the system named is T4, RhCas12f1-A56R A56R (Ruminiclostridium herbifermentans).
T4 sequence: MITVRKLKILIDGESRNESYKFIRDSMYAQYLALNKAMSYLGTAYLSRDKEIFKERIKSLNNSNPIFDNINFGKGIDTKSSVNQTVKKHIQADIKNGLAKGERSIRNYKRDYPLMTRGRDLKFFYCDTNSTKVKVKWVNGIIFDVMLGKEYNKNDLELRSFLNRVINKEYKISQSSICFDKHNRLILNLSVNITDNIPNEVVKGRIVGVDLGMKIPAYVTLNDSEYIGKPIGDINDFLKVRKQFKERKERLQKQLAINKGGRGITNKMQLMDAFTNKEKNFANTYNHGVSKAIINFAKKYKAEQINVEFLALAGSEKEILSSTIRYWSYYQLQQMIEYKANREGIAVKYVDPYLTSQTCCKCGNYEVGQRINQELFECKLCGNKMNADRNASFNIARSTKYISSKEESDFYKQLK
Put plainly: cell_activity. To be noted: PAM CCCA.

Data set [5] relates to T5, RhCas12f1 (ME-A.1) (Ruminiclostridium herbifermentans).
T5 sequence: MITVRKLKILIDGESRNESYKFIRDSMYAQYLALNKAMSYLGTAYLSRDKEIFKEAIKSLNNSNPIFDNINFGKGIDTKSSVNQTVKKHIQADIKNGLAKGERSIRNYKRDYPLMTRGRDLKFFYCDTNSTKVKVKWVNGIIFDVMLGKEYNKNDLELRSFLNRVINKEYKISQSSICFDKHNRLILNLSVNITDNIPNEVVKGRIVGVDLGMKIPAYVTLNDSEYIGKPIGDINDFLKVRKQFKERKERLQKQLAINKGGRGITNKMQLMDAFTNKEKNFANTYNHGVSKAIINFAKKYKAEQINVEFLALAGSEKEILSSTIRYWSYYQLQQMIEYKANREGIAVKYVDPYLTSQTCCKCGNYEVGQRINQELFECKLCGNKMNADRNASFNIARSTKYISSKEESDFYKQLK
Put plainly: cell_activity.

Data set [6] has as its system T6, RhCas12f1-Y125R Y125R (Ruminiclostridium herbifermentans).
T6 sequence: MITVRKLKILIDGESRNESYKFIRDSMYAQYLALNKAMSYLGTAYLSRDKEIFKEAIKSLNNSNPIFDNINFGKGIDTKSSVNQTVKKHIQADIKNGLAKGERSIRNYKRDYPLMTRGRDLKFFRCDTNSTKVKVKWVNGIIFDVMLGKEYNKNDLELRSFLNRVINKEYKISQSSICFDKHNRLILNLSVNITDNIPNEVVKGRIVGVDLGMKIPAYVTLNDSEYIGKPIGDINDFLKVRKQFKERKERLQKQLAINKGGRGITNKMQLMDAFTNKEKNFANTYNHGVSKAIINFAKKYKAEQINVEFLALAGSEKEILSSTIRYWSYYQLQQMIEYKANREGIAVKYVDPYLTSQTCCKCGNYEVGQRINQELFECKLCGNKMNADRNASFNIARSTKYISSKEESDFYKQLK
As to the kind of experiment: cell_activity. Particulars: PAM CCCA.

Data set [7] relates to T7, RhCas12f1-I264R I264R (Ruminiclostridium herbifermentans).
T7 sequence: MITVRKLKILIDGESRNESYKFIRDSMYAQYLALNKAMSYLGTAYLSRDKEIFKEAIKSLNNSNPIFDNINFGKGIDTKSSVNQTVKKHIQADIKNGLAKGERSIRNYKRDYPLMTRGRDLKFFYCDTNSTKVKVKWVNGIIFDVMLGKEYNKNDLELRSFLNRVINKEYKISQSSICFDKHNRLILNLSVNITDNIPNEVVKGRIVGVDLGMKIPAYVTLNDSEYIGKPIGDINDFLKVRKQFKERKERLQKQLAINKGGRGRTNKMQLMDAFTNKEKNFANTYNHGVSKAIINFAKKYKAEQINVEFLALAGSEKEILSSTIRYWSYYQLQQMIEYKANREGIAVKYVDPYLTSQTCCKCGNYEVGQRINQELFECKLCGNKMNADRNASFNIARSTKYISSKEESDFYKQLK
Put plainly: cell_activity. Particulars: PAM CCCA.

Data set [8] relates to T8, RhCas12f1-T131R T131R (Ruminiclostridium herbifermentans).
T8 sequence: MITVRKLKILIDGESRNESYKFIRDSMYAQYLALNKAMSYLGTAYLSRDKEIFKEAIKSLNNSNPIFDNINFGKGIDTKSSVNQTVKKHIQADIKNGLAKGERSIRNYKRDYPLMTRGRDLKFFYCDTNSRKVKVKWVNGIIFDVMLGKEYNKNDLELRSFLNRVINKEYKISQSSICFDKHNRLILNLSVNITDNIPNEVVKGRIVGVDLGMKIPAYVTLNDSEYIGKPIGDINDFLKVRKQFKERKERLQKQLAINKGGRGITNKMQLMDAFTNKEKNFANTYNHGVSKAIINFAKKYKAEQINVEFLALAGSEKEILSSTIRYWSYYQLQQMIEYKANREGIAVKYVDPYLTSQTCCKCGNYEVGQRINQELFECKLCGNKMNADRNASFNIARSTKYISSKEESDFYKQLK
Put plainly: cell_activity. To be noted: PAM CCCA.

Data set [9] relates to T9, OsCas12f1 (ME-B.3) (Oscillibacter sp.).
T9 sequence: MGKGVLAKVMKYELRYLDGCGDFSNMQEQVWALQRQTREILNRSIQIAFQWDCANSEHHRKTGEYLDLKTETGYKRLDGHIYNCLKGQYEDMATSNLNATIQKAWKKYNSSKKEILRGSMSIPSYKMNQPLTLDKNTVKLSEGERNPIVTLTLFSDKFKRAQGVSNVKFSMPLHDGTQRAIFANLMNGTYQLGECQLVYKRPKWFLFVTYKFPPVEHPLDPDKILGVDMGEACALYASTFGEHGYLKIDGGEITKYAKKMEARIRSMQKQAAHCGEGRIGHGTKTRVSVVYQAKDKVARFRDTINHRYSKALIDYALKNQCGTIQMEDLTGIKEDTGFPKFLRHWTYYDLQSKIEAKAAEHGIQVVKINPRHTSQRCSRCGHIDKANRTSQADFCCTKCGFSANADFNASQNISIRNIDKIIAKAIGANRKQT
Put plainly: cell_activity.

Data set [10] deals with the molecule itself. Put plainly: size-exclusion chromatography (Superdex 200 Increase 10/300) of Cas12f1 RNP assembled with sgRNA; self-association (homodimer). (SEC sorts molecules by how far they enter the pores of the column.)

In the case of “ACGGUUGAUUUAGCAACCGAAGUCUGAGGGCAUGUAGAAAAAAGUAUAGGUAUAUACCAACAUACUUGCAUUGCCACUCGGAAAGGGUUAACCUUGGUCAUUGUGUUACCGACCAAGCAUUCCAGAAAUGGAAUGUAAAUCCAUUACAGUAGGAGCAUACUUUUAUUUUUUU / CCCACCATTACAGTAGGAGCATAC / GTATGCTCCTACTGTAATGGTGGG”, the activity in data set [1] was 76.1 % GFP+; in data set [2] it was 75.3 % GFP+; in data set [3] it was 73.8 % GFP+; in [4], 73 % GFP+; in data set [5] (PAM CCCA, HEK293T) it was 61.5 % GFP+; in [6] it was 73.3 % GFP+. Besides, the activity in data set [7] was found to be 75 % GFP+; in [8], 77.2 % GFP+.

Molecule “ACGGUUGAUUUAGCAACCGAAGUCUGAGGGCAUGUAGAAAAAAGUAUAGGUAUAUACCAACAUACUUGCAUUGCCACUCGGAAAGGGUUAACCUUGGUCAUUGUGUUACCGACCAAGCAUUCCAGAAAUGGAAUGUAAAUGGGUCUUCGAGAAGACCUUUUUAUUUUUUU / CCCACCATTACAGTAGGAGCATAC / GTATGCTCCTACTGTAATGGTGGG” came in with an activity in data set [5] (non-targeting spacer) of 0.62 % GFP+.

Regarding “AGGGACGACUUCCCGUCCCAAAAUCGAGACAGUAGCCGUAAAACUUUGAGUUUCAGAGUGGGCGACACACUCGAAAAGGUUAAGAUAUGCACAUAGUAAUCCGUGCAUGAGCCGCGAAAGCGGCUUGAAGGGGGUCUUCGAGAAGACCUUUUUAUUUUUUU / TTTCCCATTACAGTAGGAGCATACGGG / CCCGTATGCTCCTACTGTAATGGGAAA”, the activity in data set [9] (non-targeting spacer) stood at 0.55 % GFP+.

“AGGGCCGACUUCCCGGCCCAAAAUCGAGACAGUAGCCGUAAAACUUUGAGUUUCAGAGUGGGCGACACACUCGAAAAGGUUAAGAUAUGCACAUAGUAAUCCGUGCAUGAGCCGCGAAAGCGGCUUGAAGGCCAUUACAGUAGGAGCAUACUUUUAUUUUUUU / TTTCCCATTACAGTAGGAGCATACGGG / CCCGTATGCTCCTACTGTAATGGGAAA” came in with a binding signal (fold vs WT scaffold) in data set [9] (PAM TTTC) of 1.56.

B1: OsCas12f1 (ME-B.3) (enzyme)
chain: MGKGVLAKVMKYELRYLDGCGDFSNMQEQVWALQRQTREILNRSIQIAFQWDCANSEHHRKTGEYLDLKTETGYKRLDGHIYNCLKGQYEDMATSNLNATIQKAWKKYNSSKKEILRGSMSIPSYKMNQPLTLDKNTVKLSEGERNPIVTLTLFSDKFKRAQGVSNVKFSMPLHDGTQRAIFANLMNGTYQLGECQLVYKRPKWFLFVTYKFPPVEHPLDPDKILGVDMGEACALYASTFGEHGYLKIDGGEITKYAKKMEARIRSMQKQAAHCGEGRIGHGTKTRVSVVYQAKDKVARFRDTINHRYSKALIDYALKNQCGTIQMEDLTGIKEDTGFPKFLRHWTYYDLQSKIEAKAAEHGIQVVKINPRHTSQRCSRCGHIDKANRTSQADFCCTKCGFSANADFNASQNISIRNIDKIIAKAIGANRKQT
notes: Purified recombinant protein used in size-exclusion chromatography; Entered as the single polypeptide; also called WTOsCas12f1; Cas12f1 from Oscillibacter sp; not shown: C-terminal 6xHis tag
Consider B1, for which the binding result in data set [10] is given as “binds”.

B2: RhCas12f1 (ME-A.1) (enzyme)
chain: MITVRKLKILIDGESRNESYKFIRDSMYAQYLALNKAMSYLGTAYLSRDKEIFKEAIKSLNNSNPIFDNINFGKGIDTKSSVNQTVKKHIQADIKNGLAKGERSIRNYKRDYPLMTRGRDLKFFYCDTNSTKVKVKWVNGIIFDVMLGKEYNKNDLELRSFLNRVINKEYKISQSSICFDKHNRLILNLSVNITDNIPNEVVKGRIVGVDLGMKIPAYVTLNDSEYIGKPIGDINDFLKVRKQFKERKERLQKQLAINKGGRGITNKMQLMDAFTNKEKNFANTYNHGVSKAIINFAKKYKAEQINVEFLALAGSEKEILSSTIRYWSYYQLQQMIEYKANREGIAVKYVDPYLTSQTCCKCGNYEVGQRINQELFECKLCGNKMNADRNASFNIARSTKYISSKEESDFYKQLK
notes: Purified recombinant protein used in size-exclusion chromatography; Entered as the single polypeptide; also called WTRhCas12f1; Cas12f1 from Ruminiclostridium herbifermentans; not shown: C-terminal 6xHis tag
Consider B2, for which, in [10], the binding result is on record as “binds”.
